According to patent US9393309B2, “Self-gelatinizable nucleic acid” (Kyoto University, priority 2011, dated 2016):

Columns and labels:
RAW264.7 cells = assay: Release of TNF-α from RAW264.7 cells (ELISA); format: cell-based, murine; conditions: 0.5, 1 or 2 μg/ml, 8 hours
Method: In a RPMI1640 medium to which 10% heat inactivated FBS, 0.15% sodium bicarbonate, 100 units/ml penicillin, […] streptomycin and 2 mML-glutamine were added, murine macrophage-like RAW264.7 cells were proliferated in humidified air containing 5% CO2 at 37° C. Subsequently, cells were seeded on a 24-well or 96-well culture plate at a density of 5×10^5 cells/well, and cultured for 24 hours before use.
The RAW264.7 cells were seeded on a 24-well plate at a density of 2.5×10^5 cells/well, and incubated for 24 hours before treatment. Then, ssDNA, dsDNA, or several kinds of polypodnas diluted in 0.5 ml of Opti-MEM were added to the cells at a final concentration of 0.5, 1 or 2 μg/ml. The cells were incubated for 8 hours, the supernatant was recovered and stored at −70° C. before use. The concentrations of TNF-α and IL-6 in the supernatant were measured by Enzyme-Linked Immunosorbent Assay (ELISA) using an OptEIA™ set (Pharmingen, San Diego, Calif., USA).
The same experiment as in Example 22 was carried out except that each poolypodna preparation was prepared in the same manner as in Example 1 by using the sequences in Table 1. However, the added DNA was equal amount in each case.

[1] = Release of encapsulated OVA from gel; format: physicochemical; conditions: DNA 0.5 mM
Method: By controlling the nature and salt concentration of protruding ends of Tetrapodna, the change of the releasing rate of an encapsulated compound in a gel was examined. Specifically, Tetrapodna (4-18-18) (SEQ ID NOs.: 2, 4, 5 and 6) including a cohesive protruding end and Tetrapodna (4-18-18) (SEQ ID NOs.: 58, 59, 60 and 61) as a control including a non-cohesive protruding end were used. In an aqueous solution of Tetrapodna which had been prepared such that the DNA concentration was 0.5 mM, the NaCl concentration was adjusted to 5 mM or 150 mM. When the NaCl concentration was increased, egg albumin (OVA, concentration of 2.5 μg/μl) was added as an encapsulated substance to cause gelation, and then the percentage of OVA released from the gel with the passage of time was measured.

[2] = Gel formation in a living body after subcutaneous injection of sol; format: in vivo; conditions: total DNA 2 mM, NaCl 5 mM, back of mouse
Source text: The hydrogel produced in Example 1 was able to be prepared in a sol state by appropriately adjusting conditions. Therefore, the hydrogel was able to be administered in a living body by injection. […] Thus, it was confirmed that a gel is formed in a living body only by preparing the hydrogel in accordance with the present invention in a sol state and administering the hydrogel to a living body.

[3] = Evaluation of gelation at various DNA concentrations and NaCl concentrations; format: physicochemical; set-up: key: ◯: the mark “∘” is given to cases in which gelation was observed; X: the mark “x” is given to cases of a solution state (sol-state)
Method: […] The gel formation and the gel strength were measured by a gel strength analyzer (gel strength meter, Nakayamadenki Co., Ltd, Osaka).
Specifically, by changing the DNA concentrations of an aqueous solution of Tripodona (4-18-18) (X=4) (SEQ ID NOs.: 1, 2 and 3), Tetrapodna (4-18-18) (X=4) (SEQ ID NOs.: 2, 4, 5 and 6), Hexapodna (4-18-18) (X=4) (SEQ ID NOs.: 2, 3, 4, 7, 9 and 10) and Tetrapodna (8-16-16) (X=8) (SEQ ID NOs.: 22, 23, 24 and 25) as shown in the lines of Table 4, and by changing the NaCl concentration as shown in the rows of Table 4, whether or not a gel is formed at various DNA concentrations and NaCl concentrations was evaluated. The results are shown such that the mark “∘” is given to cases in which gelation was observed, and the mark “x” is given to cases of a solution state (sol-state).

[4] = Temperature conditions for gel formation; format: physicochemical; conditions: NaCl 150 mM
Method: Furthermore, we investigated a possibility that temperature conditions are also involved in gelation. Tetrapodna (4-18-18) (SEQ ID NOs.: 2, 4, 5 and 6), Hexapodna (4-18-18) (SEQ ID NOs.: 2, 3, 4, 7, 9 and 10) and Tetrapodna (8-16-16) (SEQ ID NOs.: 22, 23, 24 and 25) were used to examine the temperature conditions for allowing a gel be present or a sol to be present by fixing the NaCl concentration at 150 mM and changing the DNA concentration variously.

[5] = Formation of hydrogel from nucleic acid units without ligase; format: physicochemical; conditions: without DNA ligase
Method: A NaCl solution was added to an ODN solution (polypodna) such that the final Na^+ concentration was 5 to 150 mM. The gel formation and the gel strength were measured by a gel strength analyzer (gel strength meter, Nakayamadenki Co., Ltd, Osaka).
A structure to be a hydrogel (a nucleic acid monomer and an estimated nucleic acid unit) in conditions at room temperature, at 5 mM to 150 mM sodium chloride concentration (150 mM is substantially physiological concentration), and not containing a DNA ligase was elucidated. […] For convenience, nucleic acid units estimated to be formed according to the number of nucleic acid monomers capable of constituting the nucleic acid unit were represented by xxxpodna (xxxpod-like structure forming nucleic acid, xxx is substituted by tri (3), tetra (4) and the like, according to the number of nucleic acid monomers capable of constituting the nucleic acid unit). In Table 2 described below, xxxpodna is an estimated nucleic acid unit, and each of xxx-Y-N is a nucleic acid monomer that can be a constituent element of the nucleic acid unit (xxxpodna) which is mentioned above thereof. When the descriptions of Ys are different from each other, different nucleic acid units can be formed. N denotes numbering of nucleic acid monomers constituting each of the estimated nucleic acid units.
Unlike (1-1) described above, gelation can be controlled by using a nucleic acid monomer including cohesive protruding ends which are not attached to themselves (that is, not palindrome sequence).

[6] = test system: mouse dendritic cell DC2.4; assay: Stimulation of dendritic cells by gel; format: cell-based; conditions: gel brought into contact with DC2.4
[7] = Percentage of remaining gels with the passage of time; format: physicochemical; conditions: DNA 0.5 mM, NaCl 150 mM
Method: Gels were formed by adjusting the NaCl concentration at 150 mM in an aqueous solution containing Tetrapodna (12-14-14) (SEQ ID NOs.: 30, 31, 32 and 33) at a DNA concentration of 0.1 mM, 0.25 mM or 0.5 mM, and the percentage of the remaining gels was measured with the passage of time. The results are shown in a graph in the left upper side of FIG. 17.
Gels were formed in conditions at a certain DNA concentration (0.5 mM) and a certain NaCl concentration (150 mM), and the percentage of the remaining gels was measured with the passage of time by using Tetrapodna (respectively, SEQ ID NOs.: 2, 4, 5 and 6, SEQ ID NOs.: 18, 19, 20 and 21, SEQ ID NOs.: 22, 23, 24 and 25, SEQ ID NOs.: 26, 27, 28 and 29, as well as SEQ ID NOs.: 30, 31, 32 and 33) having various lengths of the cohesive protruding end (4, 6, 8, 10 or 12 bases). The results are shown in a graph in the left lower side of FIG. 17. […] When 12 hours had passed, the percentage of the remaining gels became about 50%.
Gels were formed by variously changing the NaCl concentrations (5 mM, 50 mM, 100 mM or 150 mM) of an aqueous solution containing Tetrapodna (12-14-14) (SEQ ID NOs.: 30, 31, 32 and 33) at a DNA concentration of 0.5 mM, and the percentage of the remaining gels was measured with the passage of time. The results are shown in a graph in the right upper side of FIG. 17. […] At a low salt concentration (5 mM), almost all the formed gels became in a sol state when about 6 hours had passed. When the salt concentration was increased to 50 mM, solation tendency was weakened, a change from a gel into a sol occurred moderately (about 40% when 12 hours had passed).
The percentage of the remaining gels was measured with the passage of time in the same manner as in (8-3) except that Tetrapodna (4-18-18) (SEQ ID NOs.: 2, 4, 5 and 6) was used instead of Tetrapodna (12-14-14) (SEQ ID NOs.: 30, 31, 32 and 33). The results are shown in a graph in the right lower side of FIG. 17. […] In (8-3), Tetrapodna (12-14-14) (the length of the cohesive protruding end is 12 bases) was used. In (8-4), Tetrapodna (4-18-18) (the length of the cohesive protruding end is 4 bases) was used.

ssDNA36: single strand 36 mer ODN, SEQ ID No. 108 (DNA TCGCTGACGTTGCAGACATCACGTTGACGCTGTCGA; unmodified DNA) [reference compound]
TNF-α release (RAW264.7 cells): the TNF-α release hardly occurred

B1: control Tetrapodna: Tetrapodna (4-18-18), SEQ ID NOs.: 58, 59, 60 and 61, non-cohesive protruding end, control (nucleic acid)
DNA 1: AGTCTCGCTGACGTTGCAGACATCACGTTGACGCTGTCGA
DNA 2: AGTCTCGACAGCGTCAACGTGAAACGTGAAGCGTCTGCGA
DNA 3: AGTCTCGCAGACGCTTCACGTTGCAGACAGACGTTGACGA
DNA 4: AGTCTCGTCAACGTCTGTCTGCTGTCTGCAACGTCAGCGA
modifications: unmodified DNA
gelation ([1]; NaCl 5 mM or 150 mM): Gelation hardly found | percentage of OVA released from the first ([1]; OVA 2.5 μg/μl): ~100% | gel formation in a living body [2]: a gel was not formed in a living body

B2: Hexapodna(4-18-18): six ODNs, SEQ ID NOs.: 2, 3, 4, 7, 9 and 10, 4-base cohesive protruding end (nucleic acid)
DNA 1: ACGTTCGACAGCGTCAACGTGAAACGTGAAGCGTCTGCGA
DNA 2: ACGTTCGCAGACGCTTCACGTTGAGCACAGACGTTGACGA
DNA 3: ACGTTCGCTGACGTTGCAGACATCACGTTGACGCTGTCGA
DNA 4: ACGTTCGTCAACGTCTGTGCTCGCAGCGTCTTAACGTCGA
DNA 5: ACGTTCGACGTTAAGACGCTGCAGACGTTCAGGACTACGA
DNA 6: ACGTTCGTAGTCCTGAACGTCTTGTCTGCAACGTCAGCGA
modifications: unmodified DNA
gelation ([3]; Na+ 2 mM, DNA 0.8 mM): ◯ | gelation ([3]; Na+ 20 mM, DNA 0.7 mM): X | gelation ([3]; Na+ 50 mM, DNA 0.5 mM): X | gelation ([3]; Na+ 50 mM, DNA 0.6 mM): X | gelation ([3]; Na+ 50 mM, DNA 0.7 mM): ◯ | gelation ([3]; Na+ 100 mM, DNA 0.4 mM): X | gelation ([3]; Na+ 100 mM, DNA 0.5 mM): ◯ | gelation ([3]; Na+ 100 mM, DNA 0.6 mM): ◯ | gelation ([3]; Na+ 150 mM, DNA 0.3 mM): X | gelation ([3]; Na+ 150 mM, DNA 0.4 mM): ◯ | temperature at which gel is present ([4]; DNA concentration 1.0 mM): gel at 65 °C | temperature at which sol is present ([4]; DNA concentration 1.0 mM): sol at 75 °C | temperature at which gel is present ([4]; DNA concentration 0.3-0.8 mM): gel at 55 °C | temperature at which sol is present ([4]; DNA concentration 0.3-0.8 mM): sol at 65 °C | gel formation [5]: gels can be prepared

B3: Tetrapodna (4-18-18) which does not contain a CpG motif: four ODNs, SEQ ID NOs.: 14, 15, 16 and 17, not containing CpG (nucleic acid)
DNA 1: AGCTAGGCACCGTAGTCAATCGCCGATGTGTCCAAAGCCT
DNA 2: AGCTAGGCTTTGGACACATCGGTGCTCCTACCGTACTCCT
DNA 3: AGCTAGGAGTACGGTAGGAGCAGTTTCGGCATGTCCACCT
DNA 4: AGCTAGGTGGACATGCCGAAACCGATTGACTACGGTGCCT
modifications: DNA, all phosphodiester, methylation of C not given here
immunological stimulation of dendritic cell [6]: did not immunologically stimulate a mouse dendritic cell

B4: Tetrapodna(8-16-16): four ODNs, SEQ ID NOs.: 22, 23, 24 and 25, 8-base cohesive protruding end (nucleic acid)
DNA 1: ACGTACGTTAGCACGACATCAGCGTCTGACGCTTCGTCGA
DNA 2: ACGTACGTTCGACGAAGCGTCAGATCTCGTCAACGCTGCA
DNA 3: ACGTACGTTGCAGCGTTGACGAGACAGACGCTTGACGCTA
DNA 4: ACGTACGTTAGCGTCAAGCGTCTGCGCTGATGTCGTGCTA
modifications: unmodified DNA
gelation ([3]; Na+ 2 mM, DNA 0.6 mM): ◯ | gelation ([3]; Na+ 10 mM, DNA 0.5 mM): X | gelation ([3]; Na+ 20 mM, DNA 0.5 mM): ◯ | temperature at which gel is present ([4]; DNA concentration 0.5 mM): gel at 55 °C | temperature at which sol is present ([4]; DNA concentration 0.5 mM): sol at 75 °C | gel formation [5]: gels can be prepared | initial percentage of gels [7]: about 100% | percentage of the remaining gels with the passage of time [7]: decreased with the passage of time only slightly
